Here are results for one molecule from patent US20140219956A1.

The target of the assay is TROP-2 (EGP-1, epithelial glycoprotein-1) (human) (UniProt P09758). Kind of assay: cell-based or functional assay.
TROP-2 (EGP-1, epithelial glycoprotein-1) (human), sequence (P09758 27-323): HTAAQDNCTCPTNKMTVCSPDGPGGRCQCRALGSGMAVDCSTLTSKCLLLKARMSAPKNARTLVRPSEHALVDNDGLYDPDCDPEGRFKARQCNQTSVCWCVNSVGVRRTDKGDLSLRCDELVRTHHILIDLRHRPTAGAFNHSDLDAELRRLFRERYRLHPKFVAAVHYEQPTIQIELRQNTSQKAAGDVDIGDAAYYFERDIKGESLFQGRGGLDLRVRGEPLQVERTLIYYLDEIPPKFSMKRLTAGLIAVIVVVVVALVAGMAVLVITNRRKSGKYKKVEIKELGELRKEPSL

B1: hRS7 (humanized anti-TROP-2 / anti-EGP-1 antibody), unconjugated IgG (antibody, INN chains, looked up, V domains shown)
VH: QVQLQQSGSELKKPGASVKVSCKASGYTFTNYGMNWVKQAPGQGLKWMGWINTYTGEPTYTDDFKGRFAFSLDTSVSTAYLQISSLKADDTAVYFCARGGFGSSYWYFDVWGQGSLVTVSS
VL: DIQLTQSPSSLSASVGDRVSITCKASQDVSIAVAWYQQKPGKAPKLLIYSASYRYTGVPDRFSGSGSGTDFTLTISSLQPEDFAVYYCQQHYITPLTFGAGTKVEIK
As to B1, the ADCC, specific lysis of BxPC-3 target cells (PBMC effectors, effector to target ratio 100:1, 33.3 nM) amounted to 8.5%.
